We go through 38 molecules from PMC10786891, “Massively parallel profiling of RNA-targeting CRISPR-Cas13d”.

Numbering of substitutions follows the chain as printed. Numbers in names are those of the source.

T1: EsCas13d, nuclease-dead (Eubacterium siraeum, UniProt B0MS50, R295A;H300A;R849A;H854A)
T1 sequence: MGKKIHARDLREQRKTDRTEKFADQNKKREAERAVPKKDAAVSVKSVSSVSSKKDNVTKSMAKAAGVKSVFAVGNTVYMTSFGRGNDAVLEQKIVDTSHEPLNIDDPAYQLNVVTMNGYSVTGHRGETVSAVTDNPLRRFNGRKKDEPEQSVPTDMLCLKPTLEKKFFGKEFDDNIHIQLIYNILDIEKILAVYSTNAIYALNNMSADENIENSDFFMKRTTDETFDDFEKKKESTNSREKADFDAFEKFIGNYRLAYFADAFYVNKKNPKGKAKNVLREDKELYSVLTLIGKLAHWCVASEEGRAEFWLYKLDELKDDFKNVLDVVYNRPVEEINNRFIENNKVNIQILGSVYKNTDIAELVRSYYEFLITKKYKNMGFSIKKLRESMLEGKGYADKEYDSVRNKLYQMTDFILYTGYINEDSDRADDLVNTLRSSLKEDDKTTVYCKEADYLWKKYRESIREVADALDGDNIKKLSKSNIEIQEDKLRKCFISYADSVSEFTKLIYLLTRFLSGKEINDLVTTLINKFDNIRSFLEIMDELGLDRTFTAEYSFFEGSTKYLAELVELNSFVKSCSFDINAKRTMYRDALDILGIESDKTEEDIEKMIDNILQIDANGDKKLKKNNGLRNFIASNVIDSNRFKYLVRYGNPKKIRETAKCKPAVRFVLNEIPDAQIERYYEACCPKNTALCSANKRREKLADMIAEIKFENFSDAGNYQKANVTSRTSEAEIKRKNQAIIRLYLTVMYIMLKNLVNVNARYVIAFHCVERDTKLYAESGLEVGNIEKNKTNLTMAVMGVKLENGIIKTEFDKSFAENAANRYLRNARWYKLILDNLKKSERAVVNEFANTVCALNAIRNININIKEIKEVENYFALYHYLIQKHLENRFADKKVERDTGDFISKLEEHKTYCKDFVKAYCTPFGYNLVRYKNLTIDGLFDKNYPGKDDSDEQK

B1: target 1 MT 5'PFS GCA 3'PFS AAU (mixed)
RNA 1: CACCCGUGCAAAAAUGCAGGGGUCUAAAACUGAGCGGAUAACCUCUCUAUGG
RNA 2: GGGAAUGGAUCCACAUCUACGAAUUCGCACCAUAGAGAGGUUAUCCGCUCAAAUAGAUCGGAAGAGCACACGU
B2: target 1 MT 5'PFS ACA 3'PFS CUA (mixed)
RNA 1: B1 RNA 1
RNA 2: B1 RNA 2 with G27A, A52C, A53U, U54A
B3: target 1 A16U (mixed)
RNA 1: B1 RNA 1
RNA 2: B1 RNA 2 with C28U, A36U, A52C, A53C, U54G
B4: target 1 MT 5'PFS GUA 3'PFS GCG (mixed)
RNA 1: B1 RNA 1
RNA 2: B1 RNA 2 with C28U, A52G, A53C, U54G
B5: target 1 A1C,G17C (mixed)
RNA 1: B1 RNA 1
RNA 2: B1 RNA 2 with C28U, G35C, A51C, A52C, A53C, U54G
B6: target 1 MT 5'PFS ACC 3'PFS UCG (mixed)
RNA 1: B1 RNA 1
RNA 2: B1 RNA 2 with G27A, A29C, A52U, A53C, U54G
B7: target 1 MT 5'PFS AGG 3'PFS AAA (mixed)
RNA 1: B1 RNA 1
RNA 2: B1 RNA 2 with G27A, C28G, A29G, U54A
B8: target 1 MT 5'PFS GAC 3'PFS AUU (mixed)
RNA 1: B1 RNA 1
RNA 2: B1 RNA 2 with C28A, A29C, A53U
B9: target 1 MT 5'PFS ACC 3'PFS UCU (mixed)
RNA 1: B1 RNA 1
RNA 2: B1 RNA 2 with G27A, A29C, A52U, A53C
B10: target 1 MT 5'PFS GUA 3'PFS GCU (mixed)
RNA 1: B1 RNA 1
RNA 2: B1 RNA 2 with C28U, A52G, A53C
B11: target 1 MT 5'PFS GGC 3'PFS UGC (mixed)
RNA 1: B1 RNA 1
RNA 2: B1 RNA 2 with C28G, A29C, A52U, A53G, U54C
B12: target 1 MT 5'PFS GGC 3'PFS AGG (mixed)
RNA 1: B1 RNA 1
RNA 2: B1 RNA 2 with C28G, A29C, A53G, U54G
B13: target 1 MT 5'PFS AGG 3'PFS CCG (mixed)
RNA 1: B1 RNA 1
RNA 2: B1 RNA 2 with G27A, C28G, A29G, A52C, A53C, U54G
B14: target 1 MT 5'PFS GAC 3'PFS AUA (mixed)
RNA 1: B1 RNA 1
RNA 2: B1 RNA 2 with C28A, A29C, A53U, U54A
B15: target 1 MT 5'PFS AAC 3'PFS UCU (mixed)
RNA 1: B1 RNA 1
RNA 2: B1 RNA 2 with G27A, C28A, A29C, A52U, A53C
B16: target 1 MT 5'PFS CUA 3'PFS UCG (mixed)
RNA 1: B1 RNA 1
RNA 2: B1 RNA 2 with G27C, C28U, A52U, A53C, U54G
B17: target 1 MT 5'PFS GGC 3'PFS AGU (mixed)
RNA 1: B1 RNA 1
RNA 2: B1 RNA 2 with C28G, A29C, A53G
B18: target 1 MT 5'PFS CUA 3'PFS UCC (mixed)
RNA 1: B1 RNA 1
RNA 2: B1 RNA 2 with G27C, C28U, A52U, A53C, U54C
B19: target 1 MT 5'PFS GUA 3'PFS GCA (mixed)
RNA 1: B1 RNA 1
RNA 2: B1 RNA 2 with C28U, A52G, A53C, U54A
B20: target 1 MT 5'PFS ACC 3'PFS UCC (mixed)
RNA 1: B1 RNA 1
RNA 2: B1 RNA 2 with G27A, A29C, A52U, A53C, U54C
B21: target 1 MT 5'PFS UCA 3'PFS CAG (mixed)
RNA 1: B1 RNA 1
RNA 2: B1 RNA 2 with G27U, A52C, U54G
B22: target 1 MT 5'PFS CAU 3'PFS CCG (mixed)
RNA 1: B1 RNA 1
RNA 2: B1 RNA 2 with G27C, C28A, A29U, A52C, A53C, U54G
B23: target 1 MT 5'PFS GAA 3'PFS CGU (mixed)
RNA 1: B1 RNA 1
RNA 2: B1 RNA 2 with C28A, A52C, A53G
B24: target 1 MT 5'PFS CCU 3'PFS UCU (mixed)
RNA 1: B1 RNA 1
RNA 2: B1 RNA 2 with G27C, A29U, A52U, A53C
B25: target 1 MT 5'PFS CUA 3'PFS CCG (mixed)
RNA 1: B1 RNA 1
RNA 2: B1 RNA 2 with G27C, C28U, A52C, A53C, U54G
B26: target 1 MT 5'PFS GAC 3'PFS AUC (mixed)
RNA 1: B1 RNA 1
RNA 2: B1 RNA 2 with C28A, A29C, A53U, U54C
B27: target 1 MT 5'PFS AAC 3'PFS UCC (mixed)
RNA 1: B1 RNA 1
RNA 2: B1 RNA 2 with G27A, C28A, A29C, A52U, A53C, U54C
B28: target 1 MT 5'PFS UCA 3'PFS CAC (mixed)
RNA 1: B1 RNA 1
RNA 2: B1 RNA 2 with G27U, A52C, U54C
B29: target 1 MT 5'PFS AAG 3'PFS CAG (mixed)
RNA 1: B1 RNA 1
RNA 2: B1 RNA 2 with G27A, C28A, A29G, A52C, U54G
B30: target 1 MT 5'PFS AAG 3'PFS CAA (mixed)
RNA 1: B1 RNA 1
RNA 2: B1 RNA 2 with G27A, C28A, A29G, A52C, U54A
B31: target 1 MT 5'PFS GUA 3'PFS GCC (mixed)
RNA 1: B1 RNA 1
RNA 2: B1 RNA 2 with C28U, A52G, A53C, U54C
B32: target 1 MT 5'PFS AGC 3'PFS AUC (mixed)
RNA 1: B1 RNA 1
RNA 2: B1 RNA 2 with G27A, C28G, A29C, A53U, U54C
B33: target 1 A9U,C21U (mixed)
RNA 1: B1 RNA 1
RNA 2: B1 RNA 2 with C28U, C31U, A43U, A52C, A53C, U54G
B34: target 1 MT 5'PFS GUA 3'PFS GUA (mixed)
RNA 1: B1 RNA 1
RNA 2: B1 RNA 2 with C28U, A52G, A53U, U54A
B35: target 1 MT 5'PFS AAG 3'PFS CAC (mixed)
RNA 1: B1 RNA 1
RNA 2: B1 RNA 2 with G27A, C28A, A29G, A52C, U54C
B36: target 1 MT 5'PFS CAG 3'PFS AAA (mixed)
RNA 1: B1 RNA 1
RNA 2: B1 RNA 2 with G27C, C28A, A29G, U54A
B37: target 1 U3G,C7A (mixed)
RNA 1: B1 RNA 1
RNA 2: B1 RNA 2 with C28U, C45A, U49G, A52C, A53C, U54G
B38: target 1 MT 5'PFS UCA 3'PFS CAU (mixed)
RNA 1: B1 RNA 1
RNA 2: B1 RNA 2 with G27U, A52C

Usually Kd stands for the constant that tells how readily two partners part at equilibrium.

The data set concerns the target T1, EsCas13d, nuclease-dead. Briefly: crRNA (strand 1, pre-loaded); Mg2+; 40 mM Tris-HCl pH 7.5, 150 mM NaCl, 6 mM MgCl2, 1 mM DTT, 0.1% Tween-20, 0.2 mg/ml BSA; 25 C; 10 min per concentration, then washed. To be noted: tags: His6-TwinStrep-SUMO cleaved; N-terminal SNAP kept (SNAP-Surface 488); label: 3' end held by stalled T7 RNA polymerase.
Consider B1, for which binding was characterised by a dissociation constant (Kd) of 41.5 ± 10 nM.
Regarding B2, the affinity, expressed as Kd, was 12.7 ± 3.5 nM.
The result for B3 reads 58 ± 9 nM; that for B4, 7.29 ± 0.49 nM; that for B5, 54 ± 15 nM.
The same measure for B6: 8.5 ± 3.6 nM.
The result for B7 reads ~50 nM.
Consider B8, for which the Kd was 21.4 ± 4.45 nM.
B9 came in with a Kd of 8.2 ± 3.2 nM.
In turn, B10 registered a Kd of 4.18 ± 0.37 nM.
The same measure for B11: 8.6 ± 1.35 nM.
With B12, the Kd stood at 33.5 ± 5 nM.
The molecule B13 yielded a Kd of 28.3 ± 6.35 nM.
The result for B14 reads 25 ± 7.05 nM.
The result for B15 reads 22.5 ± 6.5 nM; that for B16, 6 ± 0.95 nM.
With B17, the Kd came to 17.1 ± 2.45 nM.
B18 had a Kd of 16.2 ± 4.8 nM.
The molecule B19 came in with a Kd of 13.8 ± 1.4 nM.
The same measure for B20: ~21 nM; for B21: ~84 nM.
The same measure for B22: 23 ± 8.5 nM.
The result for B23 reads 15.5 ± 4.5 nM.
Take B24: the Kd was 14.4 ± 3.1 nM.
The result for B25 reads 5.05 ± 1.7 nM; that for B26, ~29 nM; that for B27, ~13.5 nM.
B28 showed a Kd of 11 ± 5.5 nM.
As to B29, the Kd was ~37.5 nM.
With B30, the Kd came to 59 ± 29.5 nM.
The same measure for B31: 8.5 ± 1 nM; for B32: ~30.5 nM; for B33: 8.7 ± 0.8 nM.
B34 showed a Kd of 12.1 ± 1.5 nM.
The same measure for B35: ~50.5 nM; for B36: ~51.5 nM.
The result for B37 reads 7.19 ± 0.31 nM; that for B38, 14.7 ± 4.85 nM.
